Measured values taken from PMC6023931 (Nature Communications, 2018).
Numbering of substitutions follows the chain as printed. In names and notes the source's numbering stands.

B1: ΔN-TLK2, unphosphorylated (N-terminal deletion, with coiled-coil region, kinase domain and C-tail) (domain or fragment, human, UniProt Q86UE8 191-772, looked up)
chain: TEHSCSSQKQISIQHRQTQSDLTIEKISALENSKNSDLEKKEGRIDDLLRANCDLRRQIDEQQKMLEKYKERLNRCVTMSKKLLIEKSKQEKMACRDKSMQDRLRLGHFTTVRHGASFTEQWTDGYAFQNLIKQQERINSQREEIERQRKMLAKRKPPAMGQAPPATNEQKQRKSKTNGAENETPSSGNTELKDTAPALGAHSLLRLTLAEYHEQEEIFKLRLGHLKKEEAEIQAELERLERVRNLHIRELKRIHNEDNSQFKDHPTLNDRYLLLHLLGRGGFSEVYKAFDLTEQRYVAVKIHQLNKNWRDEKKENYHKHACREYRIHKELDHPRIVKLYDYFSLDTDSFCTVLEYCEGNDLDFYLKQHKLMSEKEARSIIMQIVNALKYLNEIKPPIIHYDLKPGNILLVNGTACGEIKITDFGLSKIMDDDSYNSVDGMELTSQGAGTYWYLPPECFVVGKEPPKISNKVDVWSVGVIFYQCLYGRKPFGHNQSQQDILQENTILKATEVQFPPKPVVTPEAKAFIRRCLAYRKEDRIDVQQLACDPYLLPHIRKSVSTSSPAGAAIASTSGASNNSSSN
notes: Tousled-like kinase 2 (TLK2), human; lacks the 1-190 N-terminal fragment, holds the 191-450 region around the CC domains, the kinase domain and the C-tail; the text says once '1-191' and once '1-190' for the missing segment; also called TLK2L; source: E. coli NiCo21(DE3) or Rosetta (DE3) pLysS, co-expressed with lambda phosphatase, purified (Ni-NTA, monoQ, SEC)
B2: ΔN-TLK2-KD, kinase-dead ΔN-TLK2 (D613A) (domain or fragment, human, UniProt Q86UE8 191-772, looked up)
chain: B1 chain with D423A
notes: Tousled-like kinase 2 (TLK2), human; ΔN-TLK2 (lacks the 1-190 N-terminal fragment) with the D613A mutation; also called ΔN-TLK-KD; kinase-dead homodimer; source: E. coli NiCo21(DE3) or Rosetta (DE3) pLysS, purified
B3: ΔN-TLK2-p, phosphorylated ΔN-TLK2 (domain or fragment, human, UniProt Q86UE8 191-772, looked up)
chain: B1 chain
modifications: autophosphorylated (not co-expressed with the lambda phosphatase); 41 phosphosites out of 67 possible Ser/Thr sites, mapped in Fig. 3c
notes: Tousled-like kinase 2 (TLK2), human; lacks the 1-190 N-terminal fragment, holds the CC region, the kinase domain and the C-tail; also called active homodimer (ΔN-TLK2); source: E. coli NiCo21(DE3) or Rosetta (DE3) pLysS, without lambda phosphatase, purified (Ni-NTA, monoQ, heparin, SEC)

Biological target: the molecule itself
Test: SEC-MALS; samples at 1 mg/ml, Superdex 200 Increase 10/300, 20 mM Tris-HCl, 150 mM NaCl, 0.5 mM TCEP, pH 8.0; run in triplicates

Row | Protein | stoichiometry N | binding result
1 | B1 | 2 | 
2 | B2 |  | binds
3 | B3 |  | binds
